Data on 16 substances can be found in publication PMC9998502, “Functional selectivity of EM-2 analogs at the mu-opioid receptor” (Frontiers in Pharmacology, 2023).

Test [1] addresses human delta opioid receptor (human) (UniProt P41143).
Test [2] has as its target human kappa opioid receptor (human) (UniProt P41145). Put plainly: radioligand binding; displacement of [3H]U-69593 from commercial membranes of CHO cells transfected with the human recombinant kappa opioid receptor; Ki, mean ± SEM, n ≥ 3. A general note: In a radioligand displacement assay an active substance lowers the binding of a labelled ligand.
Test [3] deals with human delta opioid receptor (human) (UniProt P41143). Put plainly: radioligand binding; displacement of [3H]deltorphin-2 from commercial membranes of CHO cells transfected with the human recombinant delta opioid receptor; Ki, mean ± SEM, n ≥ 3.
Test [4] addresses human mu opioid receptor (human) (UniProt P35372).
Test [5] concerns the target RLuc-tethered human mu receptor fusion protein (human) (UniProt P35372).
Test [6] has as its target human mu opioid receptor (human) (UniProt P35372). In words: radioligand binding; displacement of [3H]DAMGO from commercial membranes of CHO cells transfected with the human recombinant mu opioid receptor; Ki, mean ± SEM, n ≥ 3.
Test [7] deals with human kappa opioid receptor (human) (UniProt P41145).

With DPDPE (peptide), in test [1], the calcium mobilization, CHO cells with delta receptor and GαqG66Di5: α (Emax ratio to the standard agonist) worked out at 1.
Broadly, the Ki is a dissociation constant, usually derived from enzyme kinetics or from competition with a known ligand. Regarding “EM-2 analog 1 (Dmt-Pro-Phe-Phe-NH2) (peptide)”, the values for the Ki in test [2] and in test [3] were 0.83 µM and 0.56 µM, respectively.
With “EM-2 analog 2 (Tyr-(R)-Pip-Phe-Phe-NH2) (peptide)”, in test [4], the calcium mobilization, CHO cells with human mu receptor and Gαqi5: α (Emax ratio to the standard agonist) came to 0.64. The substance also displayed a BRET of mu-RLuc with Gβ1-RGFP promoted by the peptide, SH-SY5Y membranes: Emax (EM-2 = 1.00) in test [5] of 0.83. Besides, the results for the Ki in test [6], in test [2] and in test [3] were 0.0177 µM, greater than 1 µM and 0.682 µM, respectively.
In the case of “EM-2 analog 3 (Dmt-(R)-Pip-Phe-Phe-NH2) (peptide)”, the calcium mobilization, CHO cells with delta receptor and GαqG66Di5: α (Emax ratio to the standard agonist) in test [1] worked out at 0.56. Also, the calcium mobilization, CHO cells with human mu receptor and Gαqi5: α (Emax ratio to the standard agonist) in test [4] came out at 0.7. In test [5], this substance returned a BRET of mu-RLuc with Gβ1-RGFP promoted by the peptide, SH-SY5Y membranes: Emax (EM-2 = 1.00) of 0.83. Moreover, the figures for the Ki in test [6], in test [2] and in test [3] were 0.00392 µM, 0.072 µM and 0.037 µM, respectively.
As for “EM-2 analog 4 (Tyr-(R)-Nip-Phe-Phe-NH2) (peptide)”, the calcium mobilization, CHO cells with human mu receptor and Gαqi5: α (Emax ratio to the standard agonist) in test [4] turned out to be 0.99. Besides, the BRET of mu-RLuc with Gβ1-RGFP promoted by the peptide, SH-SY5Y membranes: Emax (EM-2 = 1.00) in test [5] came to 1.11. For the same substance, the BRET of mu-RLuc with β-arrestin 2-RGFP promoted by the peptide, living SH-SY5Y cells: Emax (EM-2 = 1.00) in test [5] was determined as 1.3. Besides, the Ki in test [6] was 0.00085 µM; in test [2], greater than 1 µM; in test [3] it was greater than 1 µM.
As for “EM-2 analog 5 (Dmt-(R)-Nip-Phe-Phe-NH2) (peptide)”, the calcium mobilization, CHO cells with human mu receptor and Gαqi5: α (Emax ratio to the standard agonist) in test [4] came out at 1. The same substance gave a BRET of mu-RLuc with Gβ1-RGFP promoted by the peptide, SH-SY5Y membranes: Emax (EM-2 = 1.00) in test [5] of 1.11. The substance also had a BRET of mu-RLuc with β-arrestin 2-RGFP promoted by the peptide, living SH-SY5Y cells: Emax (EM-2 = 1.00) in test [5] of 1.26. Besides, the figures for the Ki in test [6], in test [2] and in test [3] were 0.00014 µM, 0.567 µM and 0.589 µM, respectively.
On to “EM-2 analog 6 (Tyr-(R)-β2-Ala-Phe-Phe-NH2) (peptide)”, for which the calcium mobilization, CHO cells with human mu receptor and Gαqi5: α (Emax ratio to the standard agonist) in test [4] came to 0.88. Besides, the BRET of mu-RLuc with Gβ1-RGFP promoted by the peptide, SH-SY5Y membranes: Emax (EM-2 = 1.00) in test [5] came to 0.86. In test [5], the BRET of mu-RLuc with β-arrestin 2-RGFP promoted by the peptide, living SH-SY5Y cells: Emax (EM-2 = 1.00), forced to 1 is 1. Moreover, the values for the Ki in test [6], in test [2] and in test [3] were 0.0468 µM, greater than 1 µM and greater than 1 µM, respectively.
On to “EM-2 analog 7 (Dmt-(R)-β2-Ala-Phe-Phe-NH2) (peptide)”, for which the calcium mobilization, CHO cells with human mu receptor and Gαqi5: α (Emax ratio to the standard agonist) in test [4] came out at 0.95. In addition, the BRET of mu-RLuc with Gβ1-RGFP promoted by the peptide, SH-SY5Y membranes: Emax (EM-2 = 1.00) in test [5] is 0.98. In addition, the BRET of mu-RLuc with β-arrestin 2-RGFP promoted by the peptide, living SH-SY5Y cells: Emax (EM-2 = 1.00) in test [5] was 0.61. Further, the Ki was found to be 0.00031 µM in test [6], 0.807 µM in test [2] and 0.571 µM in test [3].
Regarding “EM-2 analog 8 (Tyr-(R)-β3-Ala-Phe-Phe-NH2) (peptide)”, the calcium mobilization, CHO cells with human mu receptor and Gαqi5: α (Emax ratio to the standard agonist) in test [4] came to 0.99. Also, the BRET of mu-RLuc with Gβ1-RGFP promoted by the peptide, SH-SY5Y membranes: Emax (EM-2 = 1.00) in test [5] came to 0.96. For the same substance, the BRET of mu-RLuc with β-arrestin 2-RGFP promoted by the peptide, living SH-SY5Y cells: Emax (EM-2 = 1.00) in test [5] came to 1.12. Moreover, the Ki in test [6] is 0.00044 µM; in test [2], greater than 1 µM; in test [3] it was greater than 1 µM.
Consider “EM-2 analog 9 (Dmt-(R)-β3-Ala-Phe-Phe-NH2) (peptide)”, for which the calcium mobilization, CHO cells with human mu receptor and Gαqi5: α (Emax ratio to the standard agonist) in test [4] was 1. This substance registered a BRET of mu-RLuc with Gβ1-RGFP promoted by the peptide, SH-SY5Y membranes: Emax (EM-2 = 1.00) in test [5] of 1.05. In test [5], the BRET of mu-RLuc with β-arrestin 2-RGFP promoted by the peptide, living SH-SY5Y cells: Emax (EM-2 = 1.00) was determined as 1.16. For the same substance, the Ki in test [6] came out at 0.00014 µM; in test [2], 0.89 µM; in test [3] it was 0.286 µM.
Regarding “EM-2 analog 10 (Tyr-Pro-(R)-β2-1-Nal-Phe-NH2) (peptide)”, the BRET of mu-RLuc with Gβ1-RGFP promoted by the peptide, SH-SY5Y membranes: Emax (EM-2 = 1.00) in test [5] was 0.68.
“EM-2 analog 11 (Dmt-Pro-(R)-β2-1-Nal-Phe-NH2) (peptide)”: in test [5], the BRET of mu-RLuc with Gβ1-RGFP promoted by the peptide, SH-SY5Y membranes: Emax (EM-2 = 1.00) is 0.81.
In the case of “EM-2 analog 12 (Tyr-Pro-(R)-β3-1-Nal-Phe-NH2) (peptide)”, in test [5], the BRET of mu-RLuc with Gβ1-RGFP promoted by the peptide, SH-SY5Y membranes: Emax (EM-2 = 1.00) was found to be 0.96 and the BRET of mu-RLuc with β-arrestin 2-RGFP promoted by the peptide, living SH-SY5Y cells: Emax (EM-2 = 1.00) was 0.73.
The matching figures for “EM-2 analog 13 (Dmt-Pro-(R)-β3-1-Nal-Phe-NH2) (peptide)”: 0.84 and 0.37.
Consider dynorphin A (peptide), for which the calcium mobilization, CHO cells with human kappa receptor and Gαqi5: α (Emax ratio to the standard agonist) in test [7] came out at 1.
“endomorphin-2 (Tyr-Pro-Phe-Phe-NH2) (peptide)”: the Ki in test [2] and in test [3] was greater than 1 µM each time.
